Assay results from US20220363757A1 (SYMPHOGEN A S, published 2022).
Where a chain is given by its changes, count along the chain named.

Key:
Experiment in all cases: SPR, Fab over captured mutant LAG-3-Fc;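 note: fc fusion variants captured on anti-human IgG Fc sensor, Fab injected with association then dissociation phases, KD obtained from Langmuir one-to-one fit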
[1] = biological target: T1, human LAG-3 domain 1-2 Fc fusion, point mutation #74 P138A (human, UniProt P18627 23-266)
T1 construct: not shown: human IgG1 Fc, AA P101-K330
T1 sequence: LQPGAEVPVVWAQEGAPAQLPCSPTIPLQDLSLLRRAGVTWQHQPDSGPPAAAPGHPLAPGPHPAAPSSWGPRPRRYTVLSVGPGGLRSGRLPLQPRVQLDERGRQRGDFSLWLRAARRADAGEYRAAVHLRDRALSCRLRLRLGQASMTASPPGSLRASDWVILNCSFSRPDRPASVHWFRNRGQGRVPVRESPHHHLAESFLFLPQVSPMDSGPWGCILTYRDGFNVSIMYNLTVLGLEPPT

[2] = biological target: T2, human LAG-3 domain 1-2 Fc fusion, point mutation #36 P89A (human, UniProt P18627 23-266)
T2 construct: not shown: human IgG1 Fc, AA P101-K330
T2 sequence: T1 sequence with P67A, A116P

[3] = biological target: T3, human LAG-3 domain 1-2 Fc fusion, point mutation #33 P86A (human, UniProt P18627 23-266)
T3 construct: not shown: human IgG1 Fc, AA P101-K330
T3 sequence: T1 sequence with P64A, A116P

[4] = biological target: T4, human LAG-3 domain 1-2 Fc fusion, point mutation #24 G77A (human, UniProt P18627 23-266)
T4 construct: not shown: human IgG1 Fc, AA P101-K330
T4 sequence: T1 sequence with G55A, A116P

[5] = biological target: T5, human LAG-3 domain 1-2 Fc fusion, point mutation #15 Q64A (human, UniProt P18627 23-266)
T5 construct: not shown: human IgG1 Fc, AA P101-K330
T5 sequence: T1 sequence with Q42A, A116P

[6] = biological target: T6, human LAG-3 domain 1-2 Fc fusion, point mutation #26 P79A (human, UniProt P18627 23-266)
T6 construct: not shown: human IgG1 Fc, AA P101-K330
T6 sequence: T1 sequence with P57A, A116P

[7] = biological target: T7, human LAG-3 domain 1-2 Fc fusion, point mutation #29 P82A (human, UniProt P18627 23-266)
T7 construct: not shown: human IgG1 Fc, AA P101-K330
T7 sequence: T1 sequence with P60A, A116P

[8] = biological target: T8, human LAG-3 domain 1-2 Fc fusion, point mutation #49 G105A (human, UniProt P18627 23-266)
T8 construct: not shown: human IgG1 Fc, AA P101-K330
T8 sequence: T1 sequence with G83A, A116P

[9] = biological target: T9, human LAG-3 domain 1-2 Fc fusion, point mutation #78 R154A (human, UniProt P18627 23-266)
T9 construct: not shown: human IgG1 Fc, AA P101-K330
T9 sequence: T1 sequence with A116P, R132A

B1: Fab fragment of antibody 15011 (Fab, V domains shown, not shown: a dimerising Fc or GST)
VH: EVQLLESGGGLVQPGGSLRLSCAASGFDFRSYAMMWVRQAPGKGLEWVGGINGEVGGSNTYYAPAVKGRATISRDNSKNTLYLQMNSLRAEDTAVYYCVKGAGACGICNDDIDAWGQGTLVTVSS
VL: SYELTQDPAVSVALGQTVRITCSGAGSYAGSYYYGWHQQKPGQAPVTVIYDNDKRPSNIPDRFSGSSSGNTASLTITGAQAEDEADYYCGSTNDNDDGGLFGSGTKVTVLG
notes: monomeric Fab made by GingisKHAN digestion of the IgG1
For B1, which “KD mutant/KD wild type” value [1] is on record?
The value was 0.7 fold.

What about the “KD mutant/KD wild type” value [2] of the same binder?
Its value is 0.9 fold.

And the “KD mutant/KD wild type” value [3]?
The value was 0.7 fold.

What about the “KD mutant/KD wild type” value [4] of the same binder?
Its value is 0.8 fold.

What about the “KD mutant/KD wild type” value [5] of the same binder?
The value was 0.6 fold.

And the “KD mutant/KD wild type” value [6]?
The value was 0.6 fold.

And the “KD mutant/KD wild type” value [7]?
Its value is 0.9 fold.

And the “KD mutant/KD wild type” value [8]?
The value was 1.6 fold.

What about the “KD mutant/KD wild type” value [9] of the same binder?
The value was 1.2 fold.

B2: Fab fragment of antibody 15572 (Fab, V domains shown, not shown: a dimerising Fc or GST)
VH: QLQLQESGPGLVKPSETLSLTCTVSGDSISSSSYYWGWIRQPPGKGLEWIGSIFYSGNTYYNPSLKSRVTISVDTSKNQFSLKLSSVTAADTAVYYCAREDDFLTDYYGAFDIWGQGTMVTVSS
VL: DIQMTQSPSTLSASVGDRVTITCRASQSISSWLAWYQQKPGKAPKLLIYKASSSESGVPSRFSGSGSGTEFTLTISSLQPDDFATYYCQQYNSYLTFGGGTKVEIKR
notes: as for B1
Does B2 bind [1]?
Result: no binding (tested: 300 nM)

What about the “KD mutant/KD wild type” value [2] of the same binder?
Its value is 0.8 fold.

What about the “KD mutant/KD wild type” value [3] of the same binder?
The value was 0.7 fold.

What about the “KD mutant/KD wild type” value [4] of the same binder?
The value was 0.7 fold.

Does B2 bind [5]?
Result: no binding (tested: 300 nM)

What about the “KD mutant/KD wild type” value [6] of the same binder?
The value was 0.4 fold.

What about the “KD mutant/KD wild type” value [7] of the same binder?
Its value is 0.8 fold.

And the “KD mutant/KD wild type” value [8]?
The value was 0.4 fold.

What about the “KD mutant/KD wild type” value [9] of the same binder?
Its value is 0.8 fold.

B3: Fab fragment of antibody 15532 (Fab, V domains shown, not shown: a dimerising Fc or GST)
VH: QVQLQQWGAGLLRPSETLSLTCAVYGESFSGYYWNWIRQPPGKGLEWIGEINHSGSTNYNPSLKSRVTISVDTSKTQFSLKLSSVTAADTAVYYCARGWDLLDWNDYWNEYWGQGTLVTVSS
VL: EIVLTQSPATLSLSPGERATLSCRASQSVSSYLAWYQQKPGQAPRLLIYDASNRATGIPARFSGSGSGTDFTLTISSLEPEDFAVYYCQQRSNWPLTFGGGTKVEIKR
notes: as for B1
B3 was tested. Which “KD mutant/KD wild type” value [1] did it give?
The value was 2.7 fold.

And the “KD mutant/KD wild type” value [2]?
Its value is 14.2 fold.

What about the “KD mutant/KD wild type” value [3] of the same binder?
Its value is 6.1 fold.

What about the “KD mutant/KD wild type” value [4] of the same binder?
Its value is 1 fold.

What about the “KD mutant/KD wild type” value [5] of the same binder?
Its value is 2.9 fold.

And the “KD mutant/KD wild type” value [6]?
The value was 0.9 fold.

What about the “KD mutant/KD wild type” value [7] of the same binder?
Its value is 1 fold.

And the “KD mutant/KD wild type” value [8]?
The value was 1.1 fold.

What about the “KD mutant/KD wild type” value [9] of the same binder?
The value was 0.8 fold.

B4: Fab fragment of antibody 15431 (Fab, V domains shown, not shown: a dimerising Fc or GST)
VH: QVQLQQSGPGLVKPSQTLSLTCAISGDSVSSNSAAWNWIRQSPSRGLEWLGRTYYRSKWYNDYAVSVKSRITINPDTSKNQFSLQLNSVTPEDTAVYYCARDDDWNDFDYWGQGTLVTVSS
VL: B3 VL
notes: as for B1
Does B4 bind [1]?
Result: no binding (tested: 300 nM)

And the “KD mutant/KD wild type” value [2]?
Its value is 0.8 fold.

What about the “KD mutant/KD wild type” value [3] of the same binder?
The value was 0.6 fold.

What about the “KD mutant/KD wild type” value [4] of the same binder?
The value was 0.7 fold.

Does B4 bind [5]?
Result: no binding (tested: 300 nM)

What about the “KD mutant/KD wild type” value [6] of the same binder?
Its value is 0.4 fold.

What about the “KD mutant/KD wild type” value [7] of the same binder?
The value was 1 fold.

And the “KD mutant/KD wild type” value [8]?
The value was 0.4 fold.

What about the “KD mutant/KD wild type” value [9] of the same binder?
Its value is 1 fold.
